Assay [1] deals with untreated wildtype mice injected with exosomes purified from stressed mice. Description: exosomes from stressed mice incubated ex vivo, injected i.v. into untreated wildtype mice. As to conditions: exosomes from stressed mice incubated 60 min ex vivo with agent, within 24 h, FIGS. 3c, 3d. It is filed as in vivo. The protocol:
To achieve in vitro neutralization of consumption of ceramide, 125 μL blood plasma or exosomes (purified from 150 μL blood plasma as described below) were incubated with 0.5 μg purified IgM anti-ceramide antibodies, 0.5 μg control IgM or 1 μg recombinant neutral ceramidase.
To isolate exosomes from blood plasma, samples were centrifuged at 16,500×g for 20 min. The supernatant was then passed through a 0.22-μm filter and exosomes were harvested by centrifugation twice at 100,000×g for 70 min. The final pellet was resuspended in phosphate-buffered saline (PBS). Exosomes were pelleted by centrifugation at 100,000×g for 70 min, the supernatant was discarded, and the exosomes were resuspended and injected i.v. into healthy mice. […]
(§1) Behavioral testing was performed between 3:00 p.m. and 6:00 p.m. under diffuse indirect room light. […] The time was recorded during which the mice explored a new environment before they began eating. […] The time that the mouse spent in each of the separate compartments was recorded. […] In the coat state test, the appearance of the coat (groomed vs unkempt coat) was scored on the head, neck, back, and ventrum with either a zero for normal status or a 1 for unkempt status. […] After 24 h the mice were again placed in a water-filled cylinder for 6 min, and the time of mobility or immobility during the last 4 min of the second trial was recorded. […]

Assay [2] concerns healthy mice injected with exosomes from patients with MDD. Description: exosomes from blood plasma of MDD patients treated in vitro, injected into healthy mice. It is filed as in vivo. Particulars: human exosomes preincubated with agent, 24 h after injection, FIGS. 5a, 5b. The protocol:
Depressive patients (7 women, 10 men) aged >60 years (mean age=71.1 years, SD=4.7) were recruited at the Psychiatric University Hospital, Basel, Switzerland. […] For comparison, 9 healthy individuals without history of depression (mean age=70.9 years, SD=5.3) were included in the study. The study was approved by the “Ethikkommission der Nordwest—und Zentralschweiz” (EKNZ; No. 2015-148) and all participants provided written informed consent. […]
as §1
Exosomes were isolated from 150 μL blood plasma from patients with major depressive disorder (MDD), and from healthy control subjects. […] Behavior (FIG. 5a) and neurogenesis (FIG. 5b) were determined to measure the occurrence of MDD in mice after injection of human exosomes from depressed patients. […]

For assay [3], the system named is healthy wildtype mice injected with blood plasma from stressed mice. Description: blood plasma from stressed mice treated in vitro, injected i.v. into healthy wildtype mice. The assay is classed as in vivo. As to conditions: plasma from stressed mice incubated in vitro with agent, 125 μL i.v. into non-stressed mice, 24 h later; FIGS. 3a, 3b. Here is the method:
Corticosterone (Sigma, St. Louis, Mo.) was administered to mice via the drinking water at 120 mg/L for 7 days. In the chronic unpredictable stress model (CUS), the mice were challenged with unpredictable environmental stress for 8 days, i.e., a reversal of the light/dark cycle, 3 h of 45° tilting of the cage twice each week, shaking at 125 rpm, food deprivation for 14 h, predator sounds (15 min) or wet cages (1 h) with two forms of stress per day in a randomized (unpredictable) order. Blood was collected from the heart into heparin-coated needles and tubes immediately after sacrifice by cervical dislocation. Blood plasma was centrifuged at 3500 rpm for 5 min at 4° C. in an Eppendorf centrifuge. […]
as §1

For assay [4] the following is noted: Asah2, R&D; cited from earlier work.
For assay [5], the system named is mice stressed with glucocorticosterone or chronic unpredictable environmental stress (CUS). Put plainly: i.v. treatment of stressed mice with anti-ceramide antibodies or neutral ceramidase; behavior and neurogenesis. Particulars: mice stressed 6 days with glucocorticosterone or CUS. The assay is classed as in vivo.

B1: recombinant neutral ceramidase: recombinant neutral ceramidase (Asah2, R&D, 3,000 pmol/min/μg), consumes plasma ceramide (protein, UniProt Q9JHE3 1-756, looked up)
Neutral ceramidase: MAKRTFSTLEAFLIFLLVIMTVITVALLTLLFVTSGTIENHKDSGNHWFSTTLGSTTTQPPPITQTPNFPSFRNFSGYYIGVGRADCTGQVSDINLMGYGKNGQNARGLLTRLFSRAFILADPDGSNRMAFVSVELCMISQRLRLEVLKRLESKYGSLYRRDNVILSAIHTHSGPAGFFQYTLYILASEGFSNRTFQYIVSGIMKSIDIAHTNLKPGKIFINKGNVANVQINRSPSSYLLNPQSERARYSSNTDKEMLVLKLVDLNGEDLGLISWFAIHPVSMNNSNHFVNSDNMGYAAYLFEQEKNKGYLPGQGPFVAGFASSNLGDVSPNILGPHCVNTGESCDNDKSTCPNGGPSMCMASGPGQDMFESTHIIGRIIYQKAKELYASASQEVTGPVLAAHQWVNMTDVSVQLNATHTVKTCKPALGYSFAAGTIDGVSGLNITQGTTEGDPFWDTLRDQLLGKPSEEIVECQKPKPILLHSGELTIPHPWQPDIVDVQIVTVGSLAIAAIPGELTTMSGRRFREAIKKEFALYGMKDMTVVIAGLSNVYTHYITTYEEYQAQRYEAASTIYGPHTLSAYIQLFRDLAKAIATDTVANMSSGPEPPFFKNLIASLIPNIADRAPIGKHFGDVLQPAKPEYRVGEVVEVIFVGANPKNSAENQTHQTFLTVEKYEDSVADWQIMYNDASWETRFYWHKGILGLSNATIYWHIPDTAYPGIYRIRYFGHNRKQELLKPAVILAFEGISSPFEVVTT
Regarding B1, the “development of MDD (behavior parameters and neuronal proliferation)” value in assay [1] is given as “prevented development of MDD”. The “depressed behavior and reduced neurogenesis induced by exosomes from depressed patients” value in assay [2] is “prevented their effects on mice”. Further, the “development of MDD (behavioral changes and neurogenesis in the hippocampus)” value in assay [3] is listed as “prevented the development of MDD”. Besides, the “activity of recombinant neutral ceramidase” value in assay [4] is 3,000 pmol/min/μg. The “neurogenesis in the hippocampus (BrdU-positive cells)” value in assay [5] (24 h after first i.v. injection, FIG. 2b) was “normalized neurogenesis”. In addition, the “behavioral signs of major depression (light/dark box, latency to feed, time in center, splash test, forced swim test, coat test)” value in assay [5] (i.v. injection 24 h and 12 h before analysis, FIG. 2a) is given as “abrogated behavioral signs of major depression in stressed mice”.

The values above are taken from US20210380722A1, “COMPOSITIONS AND METHODS FOR THE TREATMENT OF MAJOR DEPRESSIVE DISORDER” (Snake River Bioscience, Inc., priority 2019, published 2021).
